Molecular target: Recombinant human VISTA Fc Chimera (human (homo sapiens))
Test: functional ELISA: rhVISTA coated at 2 µg/mL, biotin-labeled rhVSIG3, streptavidin-HRP
Description: Following blocking of the wells with 1% BSA, varying amounts of rhVSIG3 labeled with biotin was added. Biotin label associated with the plate due to the rhVSIG3—rhVISTA interaction was detected with streptavidin-HRP.

Chain of Recombinant human VISTA Fc Chimera (human (homo sapiens)) (chain, as listed by the source mutant limits assumed): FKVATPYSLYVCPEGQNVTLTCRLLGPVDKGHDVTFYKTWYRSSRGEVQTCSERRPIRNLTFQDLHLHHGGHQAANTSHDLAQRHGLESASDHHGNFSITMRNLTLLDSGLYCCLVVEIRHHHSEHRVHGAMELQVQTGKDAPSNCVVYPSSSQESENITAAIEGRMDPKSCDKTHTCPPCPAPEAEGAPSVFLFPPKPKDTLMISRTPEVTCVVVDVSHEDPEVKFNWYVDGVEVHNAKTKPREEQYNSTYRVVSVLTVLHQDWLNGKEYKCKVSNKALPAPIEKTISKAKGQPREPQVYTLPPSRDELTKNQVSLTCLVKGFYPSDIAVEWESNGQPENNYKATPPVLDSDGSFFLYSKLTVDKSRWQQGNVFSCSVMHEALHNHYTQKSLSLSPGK

- EC50: ~0.25 µg/mL
B1: Recombinant human VSIG3 Fc Chimera (Fc fusion)
chain: LEVSESPGSIQVARGQTAVLPCTFTTSAALINLNVIWMVTPLSNANQPEQVILYQGGQMFDGAPRFHGRVGFTGTMPATNVSIFINNTQLSDTGTYQCLVNNLPDIGGRNIGVTGLTVLVPPSAPHCQIQGSQDIGSDVILLCSSEEGIPRPTYLWEKLDNTLKLPPTATQDQVQGTVTIRNISALSSGLYQCVASNAIGTSTCLLDLQVISPQPRNIGLIAG

Source: US11649285B2, “Identification of VSIG3/VISTA as a novel immune checkpoint and use thereof for immunotherapy” (BIO-TECHNE CORPORATION, dated 2023)
